Values quoted from earlier work in paper PMC6667839.

Molecular target: IL-33 112-270 (Homo sapiens) (UniProt O95760)
Chain of UniProt O95760 (O95760 112-270): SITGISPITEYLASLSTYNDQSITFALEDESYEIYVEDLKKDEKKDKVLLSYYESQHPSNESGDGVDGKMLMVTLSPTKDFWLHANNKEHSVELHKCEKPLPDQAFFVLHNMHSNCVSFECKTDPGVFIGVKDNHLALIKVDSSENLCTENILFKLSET

sST2 (from UniProt Q01638)
Kd: 4 nM
